Assay results from the supplement of paper PMC10567573.

B1: TRIM63 (parent)
chain: FRCPTCRHEVIMDRHGVYGLQRNL

Variants of: B1
Assay: protein stability index of a GFP-peptide fusion (GPS, HEK-293T) (PSI 1-6); higher = more stable
Details: c terminus: a fixed tail appended
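Also: lentivirally expressed fusions sorted by FACS into six bins by GFP to DsRed ratio, PSI derived from sequencing read proportions per bin multiplied by bin number.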

Row | Variant | protein stability index
1 | FRCPNCRHEVIMDRHGVYGLQRNL [T5N] | 3.43
2 | FRCPACRHEVIMDRHGVYGLQRNL [T5A] | 2.39
3 | FRCPKCRHEVIMDRHGVYGLQRNL [T5K] | 2.38
4 | FRCPMCRHEVIMDRHGVYGLQRNL [T5M] | 2.28
5 | FRCPGCRHEVIMDRHGVYGLQRNL [T5G] | 1.33
6 | FRCPQCRHEVIMDRHGVYGLQRNL [T5Q] | 1.64
7 | FRCPSCRHEVIMDRHGVYGLQRNL [T5S] | 1.82
8 | FRCPFCRHEVIMDRHGVYGLQRNL [T5F] | 2.32
9 | FRCPWCRHEVIMDRHGVYGLQRNL [T5W] | 2.17
10 | FRCPICRHEVIMDRHGVYGLQRNL [T5I] | 2.53
11 | FRCPHCRHEVIMDRHGVYGLQRNL [T5H] | 3.16
12 | FRCPCCRHEVIMDRHGVYGLQRNL [T5C] | 2.14
13 | FRCPYCRHEVIMDRHGVYGLQRNL [T5Y] | 2.65
14 | FRCPLCRHEVIMDRHGVYGLQRNL [T5L] | 1.72
15 | FRCPVCRHEVIMDRHGVYGLQRNL [T5V] | 3.27
16 | FRCPRCRHEVIMDRHGVYGLQRNL [T5R] | 1.77
17 | FRCPDCRHEVIMDRHGVYGLQRNL [T5D] | 3.7
18 | FRCYTCRHEVIMDRHGVYGLQRNL [P4Y] | 2.74
19 | FRCVTCRHEVIMDRHGVYGLQRNL [P4V] | 2.99
20 | FRCFTCRHEVIMDRHGVYGLQRNL [P4F] | 3.47
21 | FRCTTCRHEVIMDRHGVYGLQRNL [P4T] | 3.2
22 | FRCKTCRHEVIMDRHGVYGLQRNL [P4K] | 2.67
23 | FRCGTCRHEVIMDRHGVYGLQRNL [P4G] | 1.38
24 | FRCNTCRHEVIMDRHGVYGLQRNL [P4N] | 3.06

Row | Variant | protein stability index
25 | FRCQTCRHEVIMDRHGVYGLQRNL [P4Q] | 3.65
26 | FRCHTCRHEVIMDRHGVYGLQRNL [P4H] | 3.24
27 | FRCATCRHEVIMDRHGVYGLQRNL [P4A] | 2.38
28 | FRCRTCRHEVIMDRHGVYGLQRNL [P4R] | 2.18
29 | FRCSTCRHEVIMDRHGVYGLQRNL [P4S] | 2.93
30 | FRCETCRHEVIMDRHGVYGLQRNL [P4E] | 2.16
31 | FRCDTCRHEVIMDRHGVYGLQRNL [P4D] | 2.24
32 | FRCITCRHEVIMDRHGVYGLQRNL [P4I] | 3.9
33 | FRCPTCRHEVEMDRHGVYGLQRNL [I11E] | 1.85
34 | FRCPTCRHEVWMDRHGVYGLQRNL [I11W] | 1.69
35 | FRCPTCRHEVGMDRHGVYGLQRNL [I11G] | 3.3
36 | FRCPTCRHEVKMDRHGVYGLQRNL [I11K] | 1.77
37 | FRCPTCRHEVQMDRHGVYGLQRNL [I11Q] | 1.61
38 | FRCPTCRHEVLMDRHGVYGLQRNL [I11L] | 2.18
39 | FRCPTCRHEVSMDRHGVYGLQRNL [I11S] | 2.52
40 | FRCPTCRHEVVMDRHGVYGLQRNL [I11V] | 1.88
41 | FRCPTCRHEVCMDRHGVYGLQRNL [I11C] | 2.02
42 | FRCPTCRHEVPMDRHGVYGLQRNL [I11P] | 2.05
43 | FRCPTCRHEVAMDRHGVYGLQRNL [I11A] | 1.69
44 | FRCPTCRHEVRMDRHGVYGLQRNL [I11R] | 3.19
45 | FRCPTCRHEVYMDRHGVYGLQRNL [I11Y] | 1.74
46 | FRCPTCRHEVNMDRHGVYGLQRNL [I11N] | 2.82
47 | FRCPTCRHEVDMDRHGVYGLQRNL [I11D] | 1.08
48 | FRCPTCRHEVFMDRHGVYGLQRNL [I11F] | 2.23

Row | Variant | protein stability index
49 | FRCPTCRHEVTMDRHGVYGLQRNL [I11T] | 2.48
50 | FRCPTCRHEVHMDRHGVYGLQRNL [I11H] | 2.54
51 | FRCPTCRHEFIMDRHGVYGLQRNL [V10F] | 2.25
52 | FRCPTCRHEAIMDRHGVYGLQRNL [V10A] | 2.65
53 | FRCPTCRHETIMDRHGVYGLQRNL [V10T] | 2.62
54 | FRCPTCRHEEIMDRHGVYGLQRNL [V10E] | 1.91
55 | FRCPTCRHEPIMDRHGVYGLQRNL [V10P] | 1.76
56 | FRCPTCRHEQIMDRHGVYGLQRNL [V10Q] | 1.8
57 | FRCPTCRHEHIMDRHGVYGLQRNL [V10H] | 1.59
58 | FRCPTCRHECIMDRHGVYGLQRNL [V10C] | 2.18
59 | FRCPTCRHEMIMDRHGVYGLQRNL [V10M] | 1.74
60 | FRCPTCRHESIMDRHGVYGLQRNL [V10S] | 3.91
61 | FRCPTCRHEYIMDRHGVYGLQRNL [V10Y] | 2.05
62 | FRCPTCRHELIMDRHGVYGLQRNL [V10L] | 2.73
63 | FRCPTCRHENIMDRHGVYGLQRNL [V10N] | 3.46
64 | FRCPTCRHEDIMDRHGVYGLQRNL [V10D] | 2.9
65 | FRCPTCRHERIMDRHGVYGLQRNL [V10R] | 2.41
66 | FRCPTCRHEKIMDRHGVYGLQRNL [V10K] | 3.42
67 | FRCPTCRHEWIMDRHGVYGLQRNL [V10W] | 2.16
68 | FRCPTCRHEIIMDRHGVYGLQRNL [V10I] | 2.51
69 | FRCPTCRHEGIMDRHGVYGLQRNL [V10G] | 2.58
70 | FRCPTCRHEVIMRRHGVYGLQRNL [D13R] | 3
71 | FRCPTCRHEVIMHRHGVYGLQRNL [D13H] | 1.83
72 | FRCPTCRHEVIMIRHGVYGLQRNL [D13I] | 2.07

Row | Variant | protein stability index
73 | FRCPTCRHEVIMNRHGVYGLQRNL [D13N] | 1.04
74 | FRCPTCRHEVIMERHGVYGLQRNL [D13E] | 2.44
75 | FRCPTCRHEVIMARHGVYGLQRNL [D13A] | 2.42
76 | FRCPTCRHEVIMPRHGVYGLQRNL [D13P] | 2.15
77 | FRCPTCRHEVIMGRHGVYGLQRNL [D13G] | 3.87
78 | FRCPTCRHEVIMFRHGVYGLQRNL [D13F] | 1.71
79 | FRCPTCRHEVIMQRHGVYGLQRNL [D13Q] | 3.89
80 | FRCPTCRHEVIMMRHGVYGLQRNL [D13M] | 2.79
81 | FRCPTCRHEVIMSRHGVYGLQRNL [D13S] | 2.13
82 | FRCPTCRHEVIMCRHGVYGLQRNL [D13C] | 2.18
83 | FRCPTCRHEVIMKRHGVYGLQRNL [D13K] | 1.76
84 | FRPPTCRHEVIMDRHGVYGLQRNL [C3P] | 1.94
85 | FRRPTCRHEVIMDRHGVYGLQRNL [C3R] | 1.54
86 | FRQPTCRHEVIMDRHGVYGLQRNL [C3Q] | 1.78
87 | FRTPTCRHEVIMDRHGVYGLQRNL [C3T] | 1.52
88 | FREPTCRHEVIMDRHGVYGLQRNL [C3E] | 2.04
89 | FRFPTCRHEVIMDRHGVYGLQRNL [C3F] | 3.62
90 | FRYPTCRHEVIMDRHGVYGLQRNL [C3Y] | 3.25
91 | FRKPTCRHEVIMDRHGVYGLQRNL [C3K] | 1.74
92 | FRSPTCRHEVIMDRHGVYGLQRNL [C3S] | 2.41
93 | FRVPTCRHEVIMDRHGVYGLQRNL [C3V] | 2.12
94 | FRMPTCRHEVIMDRHGVYGLQRNL [C3M] | 4.35
